From article PMC2793518, “Fiber Mediated Receptor Masking in Non-Infected Bystander Cells Restricts Adenovirus Cell Killing Effect but Promotes Adenovirus Host Co-Existence” (PLoS ONE, 2009)

Biological target: T1, CAR on A549 cells (human (endogenous in A549), UniProt P78310 20-365)
T1 sequence: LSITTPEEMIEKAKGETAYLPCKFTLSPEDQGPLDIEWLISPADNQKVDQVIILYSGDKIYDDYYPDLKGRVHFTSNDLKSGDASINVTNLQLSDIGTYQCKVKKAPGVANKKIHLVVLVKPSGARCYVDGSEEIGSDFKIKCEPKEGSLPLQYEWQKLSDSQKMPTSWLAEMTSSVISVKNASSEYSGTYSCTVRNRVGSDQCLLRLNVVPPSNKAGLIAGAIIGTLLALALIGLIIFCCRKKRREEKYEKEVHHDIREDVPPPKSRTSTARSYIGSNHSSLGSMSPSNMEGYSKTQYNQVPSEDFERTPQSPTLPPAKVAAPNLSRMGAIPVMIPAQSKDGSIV
Assay: cell-based or functional assay

B1: Ad5 fiber (free trimeric fiber molecules released from Ad5-CRAD or WT Ad5 infected cells) (natural protein)
chain: MKRARPSEDTFNPVYPYDTETGPPTVPFLTPPFVSPNGFQESPPGVLSLRLSEPLVTSNGMLALKMGNGLSLDEAGNLTSQNVTTVSPPLKKTKSNINLEISAPLTVTSEALTVAAAAPLMVAGNTLTMQSQAPLTVHDSKLSIATQGPLTVSEGKLALQTSGPLTTTDSSTLTITASPPLTTATGSLGIDLKEPIYTQNGKLGLKYGAPLHVTDDLNTLTVATGPGVTINNTSLQTKVTGALGFDSQGNMQLNVAGGLRIDSQNRRLILDVSYPFDAQNQLNLRLGQGPLFINSAHNLDINYNKGLYLFTASNNSKKLEVNLSTAKGLMFDATAIAINAGDGLEFGSPNAPNTNPLKTKIGHGLEFDSNKAMVPKLGTGLSFDSTGAITVGNKNNDKLTLWTTPAPSPNCRLNAEKDAKLTLVLTKCGSQILATVSVLAVKGSLAPISGTVQSAHLIIRFDENGVLLNNSFLDPEYWNFRNGDLTEGTAYTNAVGFMPNLSAYPKSHGKTAKSNIVSQVYLNGDKTKPVTLTITLNGTQETGDTTPSAYSMSFSWDWSGHNYINEIFATSSYTFSYIAQE
percent GFP+ cells 24 hr after super-infection with Ad5-PGK-GFP (MOI 10) of A549 cultures infected 6 days before with Ad5-CRAD (MOI 1.0), relative to cultures without prior Ad5-CRAD infection: 60 % of control
